The text below walks through data of the DeepSol protein solubility set.

The nature of the series: soluble on expression in E. coli; label from the status in PepcDB or PDB records.
Take “MGSDKIHHHHHHMQEKKTLTFVVPAYNMTEYLERCVESLIASKRNDDIEVLIVDDGSSDGTLEMAKTFEARNPGIVRAIHQENKGHGGAVNTGIAAASGMYVKVVDADDWVGPESLEQVLAVLRDEVGKDDPLDMLVTNYVYDKVGKRNKHVVNFRHAMEPGKRLTWDDLGHFGLTEYILMHALVYRTAVVRESKMQLPEHTFYVDFIYAYQPFPWVKSLQYLDTPFYHYFIGRDGQSVQTDVMIRRVDQLRLVNQCMVHATPERGTVPDGLYRYMIHFLAIESSVASVFMILSREPENYEKKKAMWADIEAYSPTIYKDVRKKAMSRALNLRGSAGRFVIRKGYFLAEHVVGFN”: the “soluble on expression in E. coli” value is on record as “not soluble”. With “MSLLIKNGKIFTCEEGKIYEKGDILIKDGKISKIGEDLSQYIGEEEVIDAKGLLIFPGFIEAHCHLGLHEEGNNGAGNGTNEASEPITPQMRAIDGINPFDGGFQSAREAGVTTAVIGPGSANVIGGQFAAVKTSGICIDDMIIKESVAIKVAFGENPKRVYSGKNKMPNTRMAIAALLRETLTEAVNYKNRKIDAEIEDKDFSKNLKYEALLPLINREIPMKAHAHRADDILTAIRIAKEFNLKLTLDHCTEGHLISDYIKRENLDAIVGPTLSFNGKAETLNKTFKTPKALIDKGIKVAITTDHPVVTIDNLPLCAAMAMKEGITFNEVLEAITINPAEIIGIDERVGSLKEGKDGDLVILNGSPFEIATKTIYTIINGEVVYKDEGHHHHHH”, the “soluble on expression in E. coli” value was “soluble”. Take “SDERHKTDIAPISDKVLDAWEKVKFYQYKFKDAVDEKGEEARYHFGVIAQQIVKVFEDEGLSAFDYGLVGYDEWEATEDEYDSEGNLVEKGREAGNIYSIRPTECQWLEMACMRRKLERLSLEHHHHHH”: the “soluble on expression in E. coli” value is given as “soluble”. As to “MSLKKDIIILGIESSCDDTSAAVVRNETMLSNVIAGQAVHKAYGGVVPELASRAHQQNIVPVVSEAIKRAGIRKEEIDAIAFTRGPGLLGSLLVGTSFAKGLSLSLGIPMLEVNHLHAHVLANFLREPGEESQHPSFPFLCLLVSGGNSQIILVRSPYDMEVIGQTIDDAAGEAFDKCAKVMGLGYPGGPIVNKLASEGNPDAFRFARPHVSGYDYSFSGLKTSFLYTLRDKLAEDPDFIEKNKADLCASLQHTVIDILMKKLRQAAKDHSIKQVALAGGVSANTGLRDAFHDHARRYGWTVFIPKFAYTTDNAAMVAISGYYKYLQGDFCPIDAVPFSRITVEGHHHHHH”, the “soluble on expression in E. coli” value is “soluble”. For “MRHLPTTDIQSTLRRGKSVEQFMGRSPASRNHIRHIELRPSNNLVEVWVYDVEDQGNEEWLDLYDFNELEKGEADLPAATFVDADAAIAYAQEALSANPSRWVNLGIAQSEYLDYIRSGRPDRWPAAA”, the “soluble on expression in E. coli” value is “not soluble”.

With “MTKIFIRDDNGGTEMSQDPFQEREAEKYANPIPSREFILEHLTKREKPASRDELAVELHIEGEEQLEGLRRRLRAMERDGQLVFTRRQCYALPERLDLVKGTVIGHRDGYGFLRVEGRKDDLYLSSEQMKTCIHGDQVLAQPLGADRKGRREARIVRVLVPKTSQIVGRYFTEAGVGFVVPDDSRLSFDILIPPDQIMGARMGFVVVVELTQRPTRRTKAVGKIVEVLGDNMGTGMAVDIALRTHEIPYIWPQAVEQQVAGLKEEVPEEAKAGRVDLRDLPLVTIDGEDARDFDDAVYCEKKRGGGWRLWVAIADVSYYVRPPTPLDREARNRGTSVYFPSQVIPMLPEVLSNGLCSLNPQVDRLCMVCEMTVSSKGRLTGYKFYEAVMSSHARLTYTKVWHILQGDQDLREQYAPLVKHLEELHNLYKVLDKAREERGGISFESEEAKFIFNAERRIERIEQTQRNDAHKLIEECMILANISAARFVEKAKEPALFRIHDKPSTEAITSFRSVLAELGLELPGGNKPEPRDYAELLESVADRPDAEMLQTMLLRSMKQAIYDPENRGHFGLALQSYAHFTSPIRRYPDLMLHRAIKYLLAKEQGHQGNTTETGGYHYSMEEMLQLGQHCSMAERRADEATRDVSDWLKCDFMLDQVGNVFKGVISSVTGFGFFVRLDDLFIDGLVHVSSLDNDYYRFDQVGQRLMGESSGQTYRLGDRVEVRVEAVNMDERKIDFSLISSERAPRNVGKTAREKAKKGDAGKKGGKRRQVGKKVNFEPDSAFRGEKKTKPKAAKKDARKAKKPSAKTQKIAAATKAKRAAKKKVAE”, the “soluble on expression in E. coli” value was “not soluble”.

Regarding “MDEQAVSTSMKTVYIRIYTSVLYTSYTKPGNWSAVDRSAWSVSCSNVYADDDAKYGAHLAIDGEINTTWFTWGVANAGECWWNTVLDRPVTLTGFSVTKQSAYGSGYNLRSAEIKVRKEGETEWVTYPRVLTFRNFKGADPQYAAIEPPIPNVKEFRINCLTPDNYTGFAEINLYVKQLEHHHHHH”, the “soluble on expression in E. coli” value was “soluble”.

Regarding “GALPSHNKASFTDEEDEFILDVVRKNPTRRTTHTLYDEISHYVPNHTGNSIRHRFRVYLSKRLEYVYEVDKFGKLVRDDDGNLIKTKVLPPSIKRKFSADEDYTLAIAVKKQFYRDLFQIDPDTGRSLITDEDTPTAIARRNMTMDPNHVPGSEPNFAAYRTQSRRGPIAREFFKHFAEEHAAHTENAWRDRFRKFLLAYGIDDYISYYEAEKAQNREPEPMKNLTNRPKRPGVPTPGNYNSAAKR”, the “soluble on expression in E. coli” value is “soluble”. The entry for “MRILFSLFFFISLSLLAQPLSLSLKNAPTAEILSYLAEENMKNIVLSDQIDKNTTLRIENSHFDEIVESIVRANQLSKRKEKQIYFIGHLKEDKAIEKIDNGDKPKLITQTIKLDYAKASEVIESLTKGKGNGNVLSEQGYLYFDERSNSLIIKDSPDSMKHILALIKNLDKPTEQIAIEARIVTISSQDLQELGVRWGMFSPSDDYHKVASSLETKGLTTANHLNVNFPVNNATSLALQVARINSRVLDLELTALEQENNVEIIASPRLLTTNKKPASIKQGAEIPYVLYNRKDEVKNIEFKEAVLGLQVTPHISADNQILLDLVVTQNSPNLNNTAVNGLITIDKQELNTQVFAKHGETIVLGGIFQHLTAKGEDRVPLLGSIPVLKKLFSHSTDKITKRELVIFVTPYLVQDKYKKLEHHHHHH” is “not soluble”; for “DITGIPSGFNDLDQKTSGFQPGDLIIVAGRPSMGKTAFALNIGEHVALETSKPVAVFSMEMGGVQLAMRMLGSIGRLDQHKMRTGQLNDDDWPRLTHALGKLNDAPIFIDESAGLNSLELRARARRLYRQHEGLGLIIIDYLQLMSATSPGSENRAAEISEISRSLKALAKELQVPVIALSQLNRGLEQRPNKRPIMSDL” it is “not soluble”; for “GRKQEPFENVTLDVEEQHQGSVMQALGERKGDLKNMNPDGKGRVRLDYVIPSRGLIGFRSEFMTMTSGTGLLYSTFSHYDDVRPGEVGQRNNGVLISNGQGKAVAFALFGLQDRGKLFLGHGAEVYEGQI” it is “not soluble”.

With “MIKFSIRGENIEVTEAIRDYVESKLTKIEKYFAKDQEIDARVNLKVYRERSSKVEVTIPLDSVTLRAEDVSQDMYGSIDLVVDKIERQIRKNKTKIAKKHREKVPTGQVFTTEFEAEEVDEIPEVQVVRTKNVTLKPMDVEEARLQMELLGHDFFIYTDSEDGATNILYRREDGNLGLIEAKLEHHHHHH”, the “soluble on expression in E. coli” value was “soluble”. Consider “MSASLVETVDIEAPVAVTWALWSDVSRWPSFLSHVRLVEPLDERRFAWQLSLPGADKNFVAELTEVIPGDRIAWQTTEGVHHAGVVTFHRLSDTSSRVTLQIEYDPKGFVEHIGALTNLDSTLANYDLGEFQKLAETAAAGLEHHHHHH”, for which the “soluble on expression in E. coli” value is recorded as “not soluble”. “MVTDEAGLLSNAQEEVMNGRLRAIRSSHAVEFAVVTLPSIGDAPLEDFTLKLARQWGVGNEKNNNGLLLVLVLDQRRVRFETGYGLEGYLPDGLLSRIIHDRMIPHFRSGNYAEGLSEGVLAVQQVLDGSYDVKPLEHHHHHH”: the “soluble on expression in E. coli” value is listed as “not soluble”. The entry for “MKMFLAQKGVPFEFVNAREDEEARKKVTALAGSPTAGVVLEWEGGTEVIRGVSPASLHAWLARYRGKEA” is “soluble”; for “MGSDKIHHHHHHMLKIELLESFIAVAECGNLSKAADKICRTQSTLSLQVKKLEESVGQTLLIRDNKGVTLTESGETLLNYAYKMMQLNSQAIDELKDCQNREVIRLGVPTDFIKCYLSSCLLEFIREFTSIELVIDTDVSGNLYKRLHQGEFDVIVATHWQVPTNGELLFTRRFKWVSAVEGNAHKRKTIPMGLYPENCPIRAQVFANHRLSMRPINVLLSTPSPQALCMAVENDLVIAPIAEFRITDQMQVLDPIEHGLPILPMFNESLYLNPDTQTYATLQLINLIKANVEHKGYQLD” it is “not soluble”; for “MGSDKIHHHHHHMNMLLSEEQRDALQELMNISMGQAANSLARLIEAKITLSIPKISDVTPEQFVSMLSDQTMWYTRQSFLGSIKGEVISTLSKQGCDAIGKLMDYQPPLTQDRLNELLLELANILAGACLTGFAEQLSLNAKLSMPTMYSATSQHYHYRWASTLMMEVEFKVEVSQFDSKIVICLEEASVQTLLAKLQQLLE” it is “not soluble”. In the case of “MGSSHHHHHHSSGLVPRGSHMASGMAPGGYVAPKAVWLPAVKAKGLEISGTFTHRQGHIYMEMNFTNKALQHMTDFAIQFNKNSFGVIPSTPLAIHTPLMPNQSIDVSLPLNTLGPVMKMEPLNNLQVAVKNNIDVFYFSCLIPLNVLFVEDGKMERQVFLATWKDIPNENELQFQIKECHLNADTVSSKLQNNNVYTIAKRNVEGQDMLYQSLKLTNGIWILAELRIQPGNPNYTLSLKCRAPEVSQYIYQVYDSILKN”, the “soluble on expression in E. coli” value is reported as “soluble”. Turning to “MGSDKIHHHHHHMKFLNVIFKGHSISELIQEVIYVFIGYFFLMISYCTPRNKKKWVFGNKKIFKDNTKYLFIYMQEQHPEIQTIWITSSRRLVKRLRALSYSAYYKYSLKGLYHSLTAGVYVSTVNSNHINFFTSGRVFNVNLWHGISLKAMVDNKAVPADRSFLSRVCMPYVYEQYGLFFSTTPTIDDQYLRFFRFDPQVLYHGMSPRCSFMMMDHERLLRYIEEKEDPLMLDIIHTSRKYNKVFVYMPTWRINYGTHFMDYAFPDLYALNKAFSKINAILLLKLHPSMTYDAFKYKDLKHIYYIDANIDLYPILPFTDIMISDYSSIWYDYLLLPNKGVIHYDFDVDSYAKNEFGFFRDYKTFTPGVHASDFKQLLATIESSSSLQISEERRTWILDEMWGKGRSTNNEDLIKEICKRVEQVL”, the “soluble on expression in E. coli” value is recorded as “not soluble”. The entry for “MPNHQPVKKFKIIGGACKGLGLNLPNISSTRPTKAIVRESFFNTLQAEINGAHFIEVFSGSASMGLEALSRGAKSAVFFEQNKSAYKTLLENISLFKNRLKKEMEIQTFLDDAFKLLPTLCLKNGVLNIIYLDPPFETSGFLGIYEKCFQALERLLKRFNPKNLLVVFEHESMHEMPKSLVTLAIIKQKKFGKTTLTYFQLEHHHHHH” is “soluble”; for “AIAGRKSNRAKEKKQRRLEERAAMDAVCAKVDAANKLEDPLSAMPVFKKYDRNGLNLQIECKRVTALSPDTVEWAYELTRANMQTLYEQSEWGWKEREKREEMKDERAWYLLARDADSTPLAFSHFRFDVECGDEVLYCYEVQLESKVRRKGLGKFLIQILQLIANSTQMKKVMLTVFKHNHGAYQFFREALQFEIDETSPSMSGCCGEDCSYEILSRRTKYGEVSGHAHGGHCGGCCH” it is “soluble”; for “PNFSHWGPPRIVEIFREPNVSLGISIVGGQTVIKRLKNGEELKGIFIKQVLEDSPAGKTNALKTGDKILEVSGVDLQNASHSEAVEAIKNAGNPVVFIVQSLSSTPRVIP” it is “soluble”.

Take “MAATNHAQAIKKDTKDFITTALLQMLAKEKLQALTVSQICKRAGVSRMAFYRNFNGLEQILYEYYQPKIGAMFDTIRENPQFSAKFDSQLKFFNTFGDDIILSIDRGFEPIIQQIFKEEIEKFYFKDNDEHWTTFMSAGVYAIWRKWLLDGRQKPLKEIMDFFKQFDMIKGNV”: the “soluble on expression in E. coli” value was “not soluble”.
